System: ATF6 in BMDCs
Experiment: ATF6 activation in BMDCs (immunoblot, proteolytic processing)
Type: cell-based, mouse
Settings: MG132 5 μM or ovalbumin 500 μg/ml, in words
Method: Figure S1. Antigen pulsing of BMDCs activates IRE1α. (A) BMDCs were treated with MG132 (5 μM) or ovalbumin (500 μg/ml) for indicated time points and analyzed by IB. (B) BMDCs were pulsed with ovalbumin (500 μg/ml) and G9668 (3 μM) for indicated time periods and analyzed by IB. (C) Molecular structure, potency, and kinase selectivity of G9668. (D) Schematic representation of G9668 interaction with 220 kinases at 1 μM. Size and color of circles represent interaction strength. Analysis was conducted by KinomeScan. (E) BMDCs were pulsed for 4 h with APC-tagged ovalbumin or soluble CD4-Fc protein (500 μg/ml) with amiloride (10 μM); uptake of protein was assayed by flow cytometry (n = 3). (F) WT or MyD88 KO Flt3L-derived BMDCs were pulsed with ovalbumin (500 μg/ml) or soluble CD4-Fc protein (500 μg/ml), or treated with LPS (10 μg/ml) for 4 h and analyzed by IB. (G) MEFs and BMDCs were pulsed with ovalbumin or treated with Tg (100 nM) for 4 h and analyzed by IB. Images in A, B, F, and G represent at least two similar experiments, and molecular weights represent kD; E bar graphs represent mean ± SD from three independent biological repeats. Analysis for E was performed using unpaired, two-tailed t test; *, P ≤ 0.05; **, P ≤ 0.01. Source data are available for this figure: SourceData FS1. […]

B1: ovalbumin: classical protein antigen ovalbumin (Sigma-Aldrich) (protein)
chain: MGSIGAASMEFCFDVFKELKVHHANENIFYCPIAIMSALAMVYLGAKDSTRTQINKVVRFDKLPGFGDSIEAQCGTSVNVHSSLRDILNQITKPNDVYSFSLASRLYAEERYPILPEYLQCVKELYRGGLEPINFQTAADQARELINSWVESQTNGIIRNVLQPSSVDSQTAMVLVNAIVFKGLWEKAFKDEDTQAMPFRVTEQESKPVQMMYQIGLFRVASMASEKMKILELPFASGTMSMLVLLPDEVSGLEQLESIINFEKLTEWTSSNVMEERKIKVYLPRMKMEEKYNLTSVLMAMGITDVFSSSANLSGISSAESLKISQAVHAAHAEINEAGREVVGSAEAGVDAASVSEEFRADHPFLFCIKHIATNAVLFFGRCVSP
  ATF6 activation: relatively minimal activation

Source: article PMC9036094, “Antigen-derived peptides engage the ER stress sensor IRE1α to curb dendritic cell cross-presentation” (The Journal of Cell Biology, 2022)
